Measurements published in US20050124539A1 (Takeda / Millennium, published 2005).
No end group written: not given here. *: point of attachment. Propanoyl(3-indol-3-yl) = O=C(CCc1c[nH]c2ccccc12)*; 125I = [125I]*

T1: Human GPR7 (human, UniProt P48145 1-328)
T1 sequence: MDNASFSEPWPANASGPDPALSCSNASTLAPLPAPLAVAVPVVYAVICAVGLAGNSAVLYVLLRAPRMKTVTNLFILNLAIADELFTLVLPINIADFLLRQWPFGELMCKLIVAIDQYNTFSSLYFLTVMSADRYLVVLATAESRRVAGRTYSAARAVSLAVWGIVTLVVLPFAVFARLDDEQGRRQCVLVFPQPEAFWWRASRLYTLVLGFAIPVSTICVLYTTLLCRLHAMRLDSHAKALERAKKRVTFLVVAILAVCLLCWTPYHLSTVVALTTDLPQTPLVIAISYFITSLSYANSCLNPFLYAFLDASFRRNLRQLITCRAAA

T2: TGR26, rat-derived G protein-coupled receptor protein (rat, UniProt Q56UD9 1-329)
T2 construct: Expressed in CHO dhfr- cells from pAK-rGPR7; also called rat TGR26; TGR26 receptor
T2 sequence: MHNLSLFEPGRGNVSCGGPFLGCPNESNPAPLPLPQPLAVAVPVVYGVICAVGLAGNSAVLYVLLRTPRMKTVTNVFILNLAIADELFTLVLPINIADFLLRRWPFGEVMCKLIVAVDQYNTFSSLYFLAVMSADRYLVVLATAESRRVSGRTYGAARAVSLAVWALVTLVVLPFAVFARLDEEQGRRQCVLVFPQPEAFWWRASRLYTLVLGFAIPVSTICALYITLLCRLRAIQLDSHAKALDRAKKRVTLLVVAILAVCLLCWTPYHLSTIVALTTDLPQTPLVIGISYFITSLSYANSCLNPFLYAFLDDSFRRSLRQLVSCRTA

B1: human homologue of GPR8 ligand peptide consisting of 30 residues (peptide)
peptide: WYKHVASPRYHTVGRAAGLLMGLRRSPYLW
notes: also called hGPR8L(1-30); Human GPR8 ligand (1-30)
B2: porcine GPR8 ligand (1-23) (peptide)
peptide: WYKHTASPRYHTVGRAAGLLMGL
notes: also called pGPR8L(1-23); porcine homologue of GPR8 ligand peptide
B3: Fmoc-added Human GPR8L (1-23) (peptide)
peptide: XYKHVASPRYHTVGRAAGLLMGL
modifications: N-terminal Fmoc (N-9-fluorenylmethoxycarbonyl) on Trp 1
notes: also called Fmoc-hGPR8L(1-23); Human GPR8 ligand (1-23) modified by Fmoc

Columns and labels:
[1] = target: T3, Human GPR8 receptor protein (human, UniProt P48146 1-333); test: radioligand filter binding, membrane fraction of Human GPR8 expressing CHO cells
T3 construct: Full-length receptor expressed in CHO dhfr- cells (CHO/GPR8)
T3 sequence (P48146 whole entry): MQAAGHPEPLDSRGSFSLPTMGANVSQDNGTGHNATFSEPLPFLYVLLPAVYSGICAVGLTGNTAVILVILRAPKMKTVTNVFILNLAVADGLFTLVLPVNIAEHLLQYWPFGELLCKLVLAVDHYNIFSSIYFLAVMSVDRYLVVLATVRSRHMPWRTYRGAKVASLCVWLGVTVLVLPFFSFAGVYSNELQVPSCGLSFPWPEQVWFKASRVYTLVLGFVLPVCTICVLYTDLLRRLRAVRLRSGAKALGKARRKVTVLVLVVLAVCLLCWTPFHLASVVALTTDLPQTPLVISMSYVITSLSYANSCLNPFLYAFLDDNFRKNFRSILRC
Protocol: Using [¹²⁵I]-labeled hGPR8L(1-23) prepared as described in Reference Example 42 and a cell membrane fraction prepared from Human GPR8 expressing cells by the similar manner as described in Reference Example 6, a receptor binding assay was carried out as follows.
Cell membrane fraction prepared from Human GPR8 expressing cells was diluted to various concentration with assay buffer (25 mM Tris-HCl, 5 mM EDTA, 0.05% CHAPS (3-[(3-Cholamidopropyl) Dimethyl-Ammonio]-1-Propanesulfonate), 0.1% BSA, 0.25 mM PMSF, 1 μg/ml Pepstatin, 20 μg/ml Leupeptin, pH7.4), and 200 μl each of the diluent was dispensed into polypropilene test tube (Falcon 2053). In order to determine an amount of maximum binding (TB), […] of DMSO and 2 μl of 7 nM [¹²⁵I-Tyr²]-hGPR8L(1-23) or [¹²⁵I-Tyr¹⁰]-hGPR8L(1-23) were added to the membrane fraction solution. Further, in order to determine a non-specific binding (NSB), 2 μt of 100 μM hGPR8L(1-23)/DMSO solution and 2 μl of 7 nM [¹²⁵I]-Tyr²]-hGPR8L(1-23) or [¹²⁵I-Tyr¹⁰]-hGPR8L(1-23) were added to the membrane fraction solution. […] After filtration, a radioactivity remaining on the filter was counted using γ-counter, and an amount of specific binding (SB) was estimated by subtracting an amount of non-specific binding from an amount of maximum binding. […]

[2] = target: T3, Human GPR8 receptor protein; test: cell-based or functional assay
Human GPR7 [3] = target: T1, Human GPR7; test: cell-based or functional assay
[4] = target: T3, Human GPR8 receptor protein; test: competition with [125I-Tyr10]-hGPR8L(1-23), membrane fraction of GPR8 expressing CHO cells
Protocol: Cell membrane fraction prepared from Human GPR8 expressing cells was diluted to various concentration with assay buffer (25 mM Tris-HCl, 5 mM EDTA, 0.05% CHAPS (3-[(3-Cholamidopropyl) Dimethyl-Ammonio]-1-Propanesulfonate), 0.1% BSA, 0.25 mM PMSF, 1 μg/ml Pepstatin, 20 μg/ml Leupeptin, pH7.4), and 200 μl each of the diluent was dispensed into polypropilene test tube (Falcon 2053). In order to determine an amount of maximum binding (TB), […] of DMSO and 2 μl of 7 nM [¹²⁵I-Tyr²]-hGPR8L(1-23) or [¹²⁵I-Tyr¹⁰]-hGPR8L(1-23) were added to the membrane fraction solution. Further, in order to determine a non-specific binding (NSB), 2 μt of 100 μM hGPR8L(1-23)/DMSO solution and 2 μl of 7 nM [¹²⁵I]-Tyr²]-hGPR8L(1-23) or [¹²⁵I-Tyr¹⁰]-hGPR8L(1-23) were added to the membrane fraction solution. The reaction was done at 25° C. for 60 minutes, and the reaction mixture was filtered by suction filtration using Whatman glassfilter (GF-F) treated with polyethyleneimine. After filtration, a radioactivity remaining on the filter was counted using γ-counter, and an amount of specific binding (SB) was estimated by subtracting an amount of non-specific binding from an amount of maximum binding. Since the specific binding in the case where [¹²⁵I-Tyr¹⁰]-hGPR8L(1-23) was used, was twice as much as that in the case where [¹²⁵1-Tyr²]-hGPR8L(1-23) was used, in practice, [¹²⁵I-Tyr¹⁰]-hGPR8L(1-23) was used in the assay. When the concentration of membrane fraction was changed, a specific binding of [¹²⁵I-Tyr¹⁰]-hGPR8L(1-23) was perceived depending on the concentration of membrane fraction.
A receptor binding activity of human- and porcine-homologue derivatives of GPR8 ligand peptide, wherein the synthesis method has been described in the specification, was measured using a membrane fraction of GPR8 expressing CHO cells and [¹²⁵-Tyr¹⁰]-hGPR8L(1-23) by the method described in Reference Example 43.

Human GPR7 [5] = target: T1, Human GPR7; test: competition with [125I-Tyr10]-hGPR8L(1-23), membrane fraction of GPR7 expressing CHO cells
[6] = target: T2, TGR26, rat-derived G protein-coupled …; test: competition with [125I-Tyr10]-hGPR8L(1-23), membrane fraction of TGR26 expressing CHO cells
Protocol: (§1) Cell membrane fraction prepared from TGR26 expressing cells was diluted to various concentration with assay buffer (25 mM Tris-HCl, 5 mM EDTA, 0.05% CHAPS (3-[(3-Cholamidopropyl) Dimethyl-Ammonio]-1-Propanesulfonate), 0.1% BSA, 0.5 mM PMSF, 1 μg/ml Pepstatin, 20 μg/ml Leupeptin, 4 μg/ml E-64, pH7.4), and 200 μl each of the diluent was dispensed into polypropilene test tube (Falcon 2053). In order to determine an amount of maximum binding, 2 μl of DMSO and 2 μl of 7 nM [¹²⁵-Tyr¹⁰]-hGPR8L(1-23) were added to the membrane fraction solution. Further, in order to determine a non-specific binding, 2 μl of 100 μM hGPR8L(1-23)/DMSO solution and 2 μl of 7 nM [¹²⁵I]-Tyr¹⁰]-hGPR8L(1-23) were added to the membrane fraction solution. The reaction was done at 25° C. for 75 minutes, and the reaction mixture was filtered by suction filtration using Whatman glassfilter (GF-F) treated with polyethyleneimine. In addition, the filter was washed twice with 1.5 ml of washing buffer (25 mM Tris-HCl, 5 mM EDTA, 0.05% CHAPS, 0.1% BSA, pH7.4). After filtration, a radioactivity remaining on the filter was counted using γ-counter, and an amount of specific binding was estimated by subtracting an amount of non-specific binding from an amount of maximum binding.
A receptor binding activity of human- and porcine-homologue derivatives of GPR8 ligand peptide obtained in the reference examples was measured using a membrane fraction of TGR26 expressing CHO cells and [¹²⁵I-Tyr¹⁰]-hGPR8L(1-23) by the method described in Reference Example 73.

Human GPR7 [7] = target: T1, Human GPR7; test: cell-based or functional assay; remark: listed apart in the source
[8] = target: T2, TGR26, rat-derived G protein-coupled …; test: radioligand filter binding, membrane fraction of TGR26 expressing CHO cells
Protocol: as §1, with “binding. […]” for “binding.”

Human GPR7 [9] = target: T1, Human GPR7; test: radioligand filter binding, membrane fraction of Human GPR7 expressing CHO cells

Row | Binder | binding result [1] | Promoting activity to GTPγS binding (EC50 nM) [2] [nM] | Promoting activity to GTPγS binding (EC50 nM) (Human GPR7 [3]) [nM] | IC50 [4] [nM] | IC50 (Human GPR7 [5]) [nM] | IC50 [6] [nM] | inhibition of intracellular cAMP production (IC50) (Human GPR7 [7]) [nM] | binding result [8] | binding result (Human GPR7 [9])
1 | WY(125I)KHVASPRYHTVGRAAGLLMGL [[^125I-Tyr^2]-hGPR8L(1-23)] | binds | – | – | – | – | – | – | – | –
2 | XYKHVASPRYHTVGRAAGLLMGL (D-Trp at position 1, also called [D-Trp^1]-hGPR8L(1-23)) [[D-Trp^1]-Human GPR8 ligand (1-23)] | – | 7.1 | 2.3 | 0.82 | 0.63 | 1.3 | – | – | –
3 | WYKHVASPRYHTVGRAAGL (also called hGPR8L(1-19)) [Human GPR8 ligand (1-19)] | – | 1000 | 84 | 100 | 1.7 | 9.9 | – | – | –
4 | YKHVASPRYHTVGRAAGLLMGL (also called hGPR8L(2-23)) [Human GPR8 ligand (2-23)] | – | 3900 | 7410 | 160 | 140 | 240 | – | – | –
5 | RYHTVGRAAGLLMGL (also called hGPR8L(9-23)) [Human GPR8 ligand (9-23)] | – | 4200 | > 10000 | 1300 | 2200 | 2500 | – | – | –
6 | WYKHVASPRYHTVGRAAG (also called hGPR8L(1-18)) [Human GPR8 ligand (1-18)] | – | > 10000 | 6200 | 2700 | 2400 | 760 | – | – | –
7 | {Propanoyl(3-indol-3-yl)}-YKHVASPRYHTVGRAAGLLMGL (also called IndPr-hGPR8L(2-23)) [[N-3-Indolepropanoyl-Tyr^2]-human GPR8 ligand (2-23)] | – | 5 | 0.85 | 0.28 | 0.044 | 0.12 | – | – | –
8 | B1 | – | – | 0.67 | – | 0.025 | – | 0.13 | – | –
9 | Ac-YKHVASPRYHTVGRAAGLLMGL (also called Ac-hGPR8L(2-23)) [[N-Acetyl-Tyr^2]-Human GPR8 ligand (2-23)] | – | 7200 | 7000 | 420 | 570 | 570 | – | – | –
10 | WYKHVASPRYHTVGRAAGLLXGL (methionine sulfoxide, Met(O), at position 21, also called [MET(O)]-hGPR8L(1-23)) [Human GPR8 ligand (1-23) oxidant] | – | 1.4 | 1.6 | 0.31 | 0.17 | 0.29 | – | – | –
11 | HVASPRYHTVGRAAGLLMGL (also called hGPR8L(4-23)) [Human GPR8 ligand (4-23)] | – | 6700 | > 10000 | 1400 | 1200 | 2000 | – | – | –
12 | WYKHVASPRY(125I)HTVGRAAGLLMGL [[^125I-Tyr^10]-hGPR8L(1-23)] | binds | – | – | – | – | – | – | binds | binds
13 | B2 | – | 1.5 | 0.35 | 0.38 | 0.066 | 0.12 | – | – | –
14 | XYKHVASPRYHTVGRAAGLLMGL (N-alpha-acetyl on Trp 1, also called Ac-hGPR8L(1-23)) [[N^α-Acetyl-Trp^1]-Human GPR8 ligand (1-23)] | – | 14 | 1.5 | 2.4 | 0.077 | 0.27 | – | – | –
15 | WYKHVASPRYHTVGRAAGLL (also called hGPR8L(1-20)) [Human GPR8 ligand (1-20)] | – | 0.86 | 0.88 | 0.2 | 0.094 | 0.17 | – | – | –
16 | B3 | – | 240 | 6.6 | 0.2 | 0.14 | 0.23 | – | – | –
